The values that follow are results of earlier work, collected in article PMC8538444.

The Kd is the equilibrium constant for the complex coming apart.

This series deals with SP-BN N-terminal saposin-like segment of the SP-B proprotein (Homo sapiens) (UniProt P07988).
Sequence of UniProt P07988 (P07988 65-147): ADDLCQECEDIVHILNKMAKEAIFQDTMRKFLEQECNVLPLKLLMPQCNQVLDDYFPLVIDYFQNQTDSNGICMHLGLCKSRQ

On to SP-A (from UniProt Q8IWL2), for which the Kd is 400 nM.
